The assay concerns the target recombinant α4β1 integrin (R&D Systems) (UniProt P13612). The assay is described as follows: ELISA, recombinant α4β1 immobilised; reference is the anti-VLA-4 scFv.

As for Fab of Natalizumab, the fold ELISA signal against scFv came out at 10 times.
